Legend:
SHP1 = SHP1 (UniProt P29350); assay: GFP-Trap co-IP, SHP1 blot; details: reference: BTLA wild type
SHP2 = SHP2 (UniProt Q06124); assay: GFP-Trap co-IP, SHP2 blot; details: reference: BTLA wild type

Row | Substance | binding against the reference (SHP1; sites Y257) | binding against the reference (SHP2; sites Y257) | binding against the reference (SHP1; sites Y282) | binding against the reference (SHP2; sites Y282)
1 | BTLA (from UniProt Q7Z6A9) BTLAYYFY (Y257F) | lost | lost |  | 
2 | BTLA (from UniProt Q7Z6A9) BTLAYYYF (Y282F) |  |  | lost | lost
